{
  "source": "paper PMC6520328",
  "biological_target": "neonatal Fc receptor (FcRn) (UniProt P55899)",
  "sequence (P55899 whole entry, looked up, tested part not stated)": "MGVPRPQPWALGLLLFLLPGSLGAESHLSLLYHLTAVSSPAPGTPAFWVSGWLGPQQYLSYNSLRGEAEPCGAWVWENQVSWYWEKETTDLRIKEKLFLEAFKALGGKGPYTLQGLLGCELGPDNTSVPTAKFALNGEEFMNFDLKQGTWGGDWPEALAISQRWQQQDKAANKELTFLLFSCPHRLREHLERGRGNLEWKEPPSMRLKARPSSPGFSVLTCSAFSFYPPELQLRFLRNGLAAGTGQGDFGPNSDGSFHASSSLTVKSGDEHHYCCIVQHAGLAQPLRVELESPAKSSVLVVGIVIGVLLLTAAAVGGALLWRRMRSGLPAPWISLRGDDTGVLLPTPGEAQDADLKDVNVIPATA",
  "assay": "FcRn binding assay",
  "data": [
    {"substance": "Fc deglycosylated tralokinumab (antibody)", "values": [
      {"measurement": "FcRn binding relative to control tralokinumab", "result": 87, "unit": "%"}
    ]}
  ]
}
